Reference: patent publication US20260242485A1 (LEPU BIOPHARMA, published 2026)
Blank lines part the entries; values can stand above or below the binder they belong to.

Assays:
[1] = molecular target: T1, cynomolgus CD16 expressed on CHO-K1 cells (cynomolgus, UniProt Q8SPW2 17-254); test: flow cytometry on antigen-expressing CHO-K1 cells
T1 construct: whole, on cells; also called cyno CD16; CHO-K1-cynoCD16
Protocol: (§1) In order to evaluate the binding activity of the chimeric mAbs to human CD16A expressed on cells, cell-based binding assay was employed as followed. […] The antibody dilutions were incubated with 1×10⁵ indicated cells in the 96-well microplate for one hour at 4° C. The antibodies binding to the antigen on the cell surface were detected with PE fluorophore-conjugated anti-human IgG Fc secondary antibodies (ThermoFisher scientific, Cat. No. 12-4998-82) at a dilution rate of 1:1000. Cells were analyzed by flow cytometer LSRFortessa Cell Analyzer (BD Biosciences). Data were analyzed with Flowjo 10.0 software. The graph and statistics analysis were generated with four-parameter nonlinear regression curve fit in Graphpad Prism 9 software.
(§2) CHO-K1 cells stably expressing cynomolgus CD16 were used in the following test.

[2] = molecular target: T2, human CD16A-158V expressed on CHO-K1 cells (human, UniProt P08637 17-254); test: flow cytometry on antigen-expressing CHO-K1 cells
T2 construct: whole, on cells; also called hCD16A-158V; CHO-K1-hCD16A-158V
Protocol: as §1, §2

[3] = molecular target: T3, human CD16A-158F expressed on CHO-K1 cells (human, UniProt P08637 17-254); test: flow cytometry on antigen-expressing CHO-K1 cells
T3 construct: whole, on cells
Protocol: as §1, §2

[4] = molecular target: T2, human CD16A-158V expressed on CHO-K1 …; test: flow cytometry, CHO-K1-hCD16A-158V cells, Alexa Fluor 647 anti-human IgG Fc, geometric mean
[5] = molecular target: T2, human CD16A-158V expressed on CHO-K1 …; test: flow cytometry, CHO-K1-hCD16A-158V cells, geometric mean
hCD16A-158F-his protein = molecular target: T4, hCD16A-158F-his protein (human, UniProt P08637 17-208); test: SPR (Biacore 8K), antibody captured on Protein A chip, antigen at 50 nM
T4 construct: Bought protein
Protocol: (§3) The binding affinity of the chimeric antibodies to human CD16A was determined with Biacore™. Briefly, the antibodies were captured with a Protein A chip. […] The antigen was allowed to dissociate for 500 s. The experiment was carried out on a Biacore™ 8K. Data analysis was carried out using Biacore™ 8K evaluation software.

hCD16A-158V-his protein = molecular target: T5, hCD16A-158V-his protein (human, UniProt P08637 17-208); test: as above
T5 construct: extracellular domain; Bought protein; also called human CD16A-158V-his; Human CD16A-158V (protein)
Protocol: as §3

[6] = molecular target: T3, human CD16A-158F expressed on CHO-K1 …; test: flow cytometry, CHO-K1-hCD16A-158F cells, geometric mean
Protocol: as §1
(§4) The assay was performed following the protocol described above.

[7] = molecular target: T6, human CD16B-NA2 ECD his tag protein (human, UniProt O75015 17-200); test: ELISA, hCD16B-NA2-his coated at 2 ug/mL, OD450
T6 construct: extracellular domain; Bought protein; also called hCD16B-NA2-his; hCD16B-NA2 protein
Protocol: In order to determine the binding ability of the chimeric Abs to human CD16A protein, ELISA-based binding assay was performed as followed. […] The mixture was incubated for 1 hour at room temperature (RT). The primary antibody was recognized by a detective antibody against human IgG Fc which was conjugated with horseradish peroxidase (HRP) (Jackson Immuno, Cat. No. 109-035-008). Tetramethylbenzidine (TMB), a substrate of HRP, was added to the wells to visualize the binding signal. After sufficient color development, stop solution was added to the wells. The absorbance of the signal was detected at 450 nm with Envision multilabel plate readers (PerkinElemer). The graph and statistics analysis were generated with four-parameter nonlinear regression curve fit in Graphpad Prism 9 software.
In order to determine the binding ability of the chimeric Abs to human CD16B protein, ELISA binding assay was performed as previously described. Three spliced isoforms of CD16B including human CD16B-NA1 ECD his tag protein (hCD16B-NA1-his, Acro Bio, Cat: No. CDB-H5227), human CD16B-NA2 ECD his tag protein (hCD16B-NA2-his, Acro Bio, Cat: No. CDB-H82Ea) and human CD16B-SH-his protein, were used as the coating antigens at 2 μg/mL.

[8] = molecular target: T1, cynomolgus CD16 expressed on CHO-K1 …; test: flow cytometry, CHO-K1-cyno CD16 cells, geometric mean
Protocol: as §1, §4

[9] = molecular target: T7, human CD32B expressed on CHO-K1 cells (human, UniProt P31994 43-310); test: flow cytometry, CHO-K1-hCD32B cells, geometric mean
T7 construct: whole, on cells; also called hCD32B
T7 sequence (looked up): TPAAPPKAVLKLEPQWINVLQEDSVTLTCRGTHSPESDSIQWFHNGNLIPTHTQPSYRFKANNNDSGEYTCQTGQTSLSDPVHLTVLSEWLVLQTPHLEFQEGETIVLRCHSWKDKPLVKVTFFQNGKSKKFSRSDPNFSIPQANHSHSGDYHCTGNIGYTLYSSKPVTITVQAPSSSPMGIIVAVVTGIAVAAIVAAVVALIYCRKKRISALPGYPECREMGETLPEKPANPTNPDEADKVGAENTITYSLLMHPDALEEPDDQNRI
Protocol: as §1
(§5) To exclude the non-specific binding of the CD16A chimeric antibody to human CD16B and CD32B expressed on cells, cell-based binding assay was performed as described above. Firstly, CHO-K1 cells were stably transferred with one human CD16B spliced isoform hCD16B-NA1 and human CD32B. Then, the cells were incubated with the indicated concentrations of CD16A chimeric antibodies.

[10] = molecular target: T8, human CD16B-NA1 expressed on CHO-K1 cells (human, UniProt O75015 17-200); test: flow cytometry, CHO-K1-hCD16B-NA1 cells, geometric mean
T8 construct: whole, on cells; also called hCD16B-NA1; CHO-K1-hCD16B-NA1
Protocol: as §1, §5

T2 sequence (P08637 17-254 F176V): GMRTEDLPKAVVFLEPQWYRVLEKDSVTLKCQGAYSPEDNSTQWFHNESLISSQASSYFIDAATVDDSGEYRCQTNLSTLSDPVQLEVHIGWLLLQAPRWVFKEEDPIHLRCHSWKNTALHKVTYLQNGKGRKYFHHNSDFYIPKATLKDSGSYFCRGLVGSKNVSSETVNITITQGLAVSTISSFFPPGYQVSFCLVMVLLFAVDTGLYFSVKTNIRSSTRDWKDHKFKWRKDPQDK
T5 sequence (P08637 17-208 F176V): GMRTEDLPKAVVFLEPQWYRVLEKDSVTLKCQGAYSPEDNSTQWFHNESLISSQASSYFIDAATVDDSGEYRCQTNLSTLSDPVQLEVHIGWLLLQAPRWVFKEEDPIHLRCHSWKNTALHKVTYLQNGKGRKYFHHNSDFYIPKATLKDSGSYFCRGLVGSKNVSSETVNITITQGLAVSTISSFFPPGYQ
T3 sequence (P08637 17-254): as the sequence (P08637 17-254 F176V) above, with V160F counted along it
T4 sequence (P08637 17-208 limits assumed): as the sequence (P08637 17-208 F176V) above, with V160F counted along it
T1 sequence (Q8SPW2 17-254): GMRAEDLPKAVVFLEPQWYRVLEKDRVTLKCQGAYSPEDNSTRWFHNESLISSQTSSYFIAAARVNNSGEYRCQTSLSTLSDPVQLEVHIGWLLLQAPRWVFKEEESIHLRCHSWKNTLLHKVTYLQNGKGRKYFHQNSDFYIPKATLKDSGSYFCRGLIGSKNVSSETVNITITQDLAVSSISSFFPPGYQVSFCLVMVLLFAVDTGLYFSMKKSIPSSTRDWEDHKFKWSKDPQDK
T6 sequence (O75015 17-200 N65S limits assumed): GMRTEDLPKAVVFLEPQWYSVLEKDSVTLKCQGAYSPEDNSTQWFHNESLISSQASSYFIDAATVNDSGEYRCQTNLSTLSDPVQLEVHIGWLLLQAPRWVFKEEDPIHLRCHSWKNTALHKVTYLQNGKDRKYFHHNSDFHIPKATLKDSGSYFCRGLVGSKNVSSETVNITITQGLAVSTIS
T8 sequence (O75015 other isoform, or with tags, fused parts or gaps): as the sequence (O75015 17-200 N65S limits assumed) above, with S20R, S49N, N66D, I90V counted along it

- EC50 [1]: 1.74 nM
- EC50 [2]: 0.61 nM
- EC50 [3]: 0.57 nM
- EC50 (read off the curve) [4]: ~0.4 nM
- EC50 (read off the curve) [5]: ~0.5 nM
- Kd (hCD16A-158F-his protein): 2.23 nM
- koff (hCD16A-158F-his protein): 0.002 s⁻¹
- kon (hCD16A-158F-his protein): 897000 M⁻¹ s⁻¹
- Kd (hCD16A-158V-his protein): 1.68 nM
- koff (hCD16A-158V-his protein): 0.00135 s⁻¹
- kon (hCD16A-158V-his protein): 804000 M⁻¹ s⁻¹
- EC50 (read off the curve) [6]: ~0.4 nM
- binding result [7]: no binding (tested: 20 nM)
- EC50 (read off the curve) [8]: ~0.7 nM
- binding result [9]: no binding (tested: 100 nM)
- binding result [10]: no binding (tested: 100 nM)
B1: P2C47-hIgG1 LALAPG (antibody)
heavy: QVQLVQSGAEVKKPGESLKVSCKASGYTFTSYYMHWVRQAPGQGLEWMGAIEPMYGSTSYAQKFQGRVTMTRDTSTSTVYMELSSLRSEDTAVYYCARGSAYYYDFADYWGQGTLVTVSSASTKGPSVFPLAPSSKSTSGGTAALGCLVKDYFPEPVTVSWNSGALTSGVHTFPAVLQSSGLYSLSSVVTVPSSSLGTQTYICNVNHKPSNTKVDKKVEPKSCDKTHTCPPCPAPEAAGGPSVFLFPPKPKDTLMISRTPEVTCVVVDVSHEDPEVKFNWYVDGVEVHNAKTKPREEQYNSTYRVVSVLTVLHQDWLNGKEYKCKVSNKALGAPIEKTISKAKGQPREPQVYTLPPSREEMTKNQVSLTCLVKGFYPSDIAVEWESNGQPENNYKTTPPVLDSDGSFFLYSKLTVDKSRWQQGNVFSCSVMHEALHNHYTQKSLSLSPGK
light: SYVLTQPSSVSVAPGQTATISCGGHNIGSKNVHWYQQRPGQSPVLVIYQDNKRPSGIPERFSGSNSGNTATLTISGTQAMDEADYYCQVWDNYSVLFGGGTKLTVLGQPKANPTVTLFPPSSEELQANKATLVCLISDFYPGAVTVAWKADGSPVKAGVETTKPSKQSNNKYAASSYLSLTPEQWKSHRSYSCQVTHEGSTVEKTVAPTECS
notes: also called benchmark antibody P2C47

- EC50 [1]: 1.74 nM
- EC50 [2]: 0.36 nM
- EC50 [3]: 0.4 nM
- EC50 (read off the curve) [4]: ~0.4 nM
- EC50 (read off the curve) [5]: ~0.5 nM
- Kd (hCD16A-158F-his protein): 1.17 nM
- koff (hCD16A-158F-his protein): 0.00455 s⁻¹
- kon (hCD16A-158F-his protein): 3.9e+06 M⁻¹ s⁻¹
- Kd (hCD16A-158V-his protein): 1.86 nM
- koff (hCD16A-158V-his protein): 0.00655 s⁻¹
- kon (hCD16A-158V-his protein): 3.52e+06 M⁻¹ s⁻¹
- EC50 (read off the curve) [6]: ~0.4 nM
- binding result [7]: no binding (tested: 20 nM)
- EC50 (read off the curve) [8]: ~0.7 nM
- binding result [9]: no binding (tested: 100 nM)
- binding result [10]: no binding (tested: 100 nM)
B2: 45H6E8-hIgG1 LALAPG (antibody)
heavy: EVQLQQSGAELVRSGASVKLSCTASGFNIKDYYMQWVKQRPEQGLEWIGWIDPENGDTEYAPKFQGKATMTADTSSNTAYLQLSSLTSEDTAVYYCTTGGNYVDWGQGTTLTVSSASTKGPSVFPLAPSSKSTSGGTAALGCLVKDYFPEPVTVSWNSGALTSGVHTFPAVLQSSGLYSLSSVVTVPSSSLGTQTYICNVNHKPSNTKVDKKVEPKSCDKTHTCPPCPAPEAAGGPSVFLFPPKPKDTLMISRTPEVTCVVVDVSHEDPEVKFNWYVDGVEVHNAKTKPREEQYNSTYRVVSVLTVLHQDWLNGKEYKCKVSNKALGAPIEKTISKAKGQPREPQVYTLPPSREEMTKNQVSLTCLVKGFYPSDIAVEWESNGQPENNYKTTPPVLDSDGSFFLYSKLTVDKSRWQQGNVFSCSVMHEALHNHYTQKSLSLSPGK
light: DIVMTQSQKFMSTSVGDRVSITCKASQNVGTAVAWYQQKPGQSPKLLIYSASNRYTGVPDRFTGSGSGTDFTLTISNMQSEDLADYFCQQYSSYPLLTFGAGTNLELKRTVAAPSVFIFPPSDEQLKSGTASVVCLLNNFYPREAKVQWKVDNALQSGNSQESVTEQDSKDSTYSLSSTLTLSKADYEKHKVYACEVTHQGLSSPVTKSFNRGEC
notes: also called 45H6E8 chimeric antibody
